Publication PMC4801511

B1: RPAP2_32–345 (Homo sapiens) (protein)
chain: LKQEDASKRKAELEAAVRKKIEFERKALHIVEQLLEENITEEFLMECGRFITPAHYSDVVDERSIVKLCGYPLCQKKLGIVPKQKYKISTKTNKVYDITERKSFCSNFCYQASKFFEAQIPKTPVWVREEERHPDFQLLKEEQSGHSGEEVQLCSKAIKTSDIDNPSHFEKQYESSSSSTHSDSSSDNEQDFVSSILPGNRPNSTNIRPQLHQKSIMKKKAGHKANSKHKDKEQTVVDVTEQLGDCKLDSQEKDATCELPLQKVNTQSSSNSTLPERLKASENSESEYSRSEITLVGISKKSAEHFKRKFAKSN
B2: RPAP2_32–274 (Homo sapiens) (protein)
chain: LKQEDASKRKAELEAAVRKKIEFERKALHIVEQLLEENITEEFLMECGRFITPAHYSDVVDERSIVKLCGYPLCQKKLGIVPKQKYKISTKTNKVYDITERKSFCSNFCYQASKFFEAQIPKTPVWVREEERHPDFQLLKEEQSGHSGEEVQLCSKAIKTSDIDNPSHFEKQYESSSSSTHSDSSSDNEQDFVSSILPGNRPNSTNIRPQLHQKSIMKKKAGHKANSKHKDKEQTVVDVTEQL

Substrate: Cc1cc(=O)oc2c(F)c(OP(=O)(O)O)c(F)cc12
Experiment: DiFMUP fluorescence phosphatase assay, Michaelis-Menten fit
Format: biochemical, Homo sapiens
Conditions: 20 mM tris-acetate pH 6.0, 150 mM NaCl, BSA 0.1 mg/ml

Row | Protein | Km | kcat/Km
1 | B1 | 34.20 ± 0.84 µM | 333000 M⁻¹ s⁻¹
2 | B2 | 30.95 ± 1.75 µM | 833000 M⁻¹ s⁻¹
